Data as given in US20240115668A1 (KOLON TISSUEGENE, published 2024).

Molecular target: Recombinant human PTEN protein (human, UniProt P60483 1-403 (dog entry), limits assumed)
Assay: cell-based or functional assay

Chain of Recombinant human PTEN protein (P60483 whole entry): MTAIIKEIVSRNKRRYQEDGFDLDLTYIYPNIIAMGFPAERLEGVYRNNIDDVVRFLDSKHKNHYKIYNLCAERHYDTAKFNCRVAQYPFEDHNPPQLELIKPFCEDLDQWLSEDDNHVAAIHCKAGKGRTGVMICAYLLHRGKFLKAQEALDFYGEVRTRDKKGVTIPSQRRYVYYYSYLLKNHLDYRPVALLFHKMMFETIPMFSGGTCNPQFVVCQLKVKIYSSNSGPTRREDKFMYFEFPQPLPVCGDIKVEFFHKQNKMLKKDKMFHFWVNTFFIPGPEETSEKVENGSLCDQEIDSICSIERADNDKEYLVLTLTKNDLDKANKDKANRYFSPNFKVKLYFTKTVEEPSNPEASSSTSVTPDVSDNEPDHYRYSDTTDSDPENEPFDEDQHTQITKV

B1: TGN-1 peptide (peptide)
peptide: RRRRRRRRVTPDVSDNEPDHYRYSDTTDSDPE
modifications: three phosphorylated Serine residues (pS; PTEN Ser370, Ser380 and Ser385 = peptide positions 14, 24 and 29); C-terminal amide
- PTEN activity remaining with 10 µM peptide, compared with positive control (in vitro PTEN activity assay): 54%

Binder: RRRRRRRRHYRYVDTTDVDPENEPFDEDQHTQITKV (C-terminal amide) [TGN-3 peptide]
- IC50, in vitro PTEN activity assay (lipid phosphatase, C8-PIP3 liposomes, Malachite Green): 87.1 µM
- PTEN activity remaining with 10 µM peptide, compared with positive control (in vitro PTEN activity assay): 86%

B2: TGN-2 peptide (peptide)
peptide: RRRRRRRRHYRYSDTTDSDPENEPFDEDQHTQITKV
modifications: two phosphorylated Serine residues (pS; PTEN Ser380 and Ser385 = peptide positions 13 and 18); C-terminal amide
- PTEN activity remaining with 10 µM peptide, compared with positive control (in vitro PTEN activity assay): 31%
